Results on 10 proteins are retold here after article PMC8612531 (Science Advances, 2021).

The target of one data set is A0A0H2. Description: SEC-MALS.
The data set “SEC-MALS” concerns the molecule itself. Description: SEC-MALS. (In gel filtration, larger molecules generally elute earlier.)
The data set “crystal structure” deals with the molecule itself. The data set can be described thus: crystal structure.
The data set “SEC” deals with the molecule itself. The data set can be described thus: SEC.

Where a chain is given by its changes, count along the chain named. Names and notes keep the numbering of the source.

B1: XccBphP R525E-R527E full-length variant, apoprotein (natural protein)
chain: STATNPLDLDVCAREPIHIPGLIQPYGVLLVIDPADGRIVQASTTAADLLGVPMAALLGMPYTQVLTLPEAQPFAVDDQPQHLMHAEVRFPQRATPPASAWVAAWHLYPQQWLVEMEPRDARLLDVTLREAMPLLRSVERDPGIAEAAVRVAKGLRSLIGFDRVMIYRFDEEWNGDIIAEARKPELEAYLGLHYPASDIPAQARALYLRNRVRQIADVGYQPSPIQPTVHPQLGTPVDLSDVSLRSVSPVHLEYLANMGVTATLVASIVVNDALWGLISCHHYSPHFTNHAMRDVTDAVARTLAGRIGALQAVARARLESVLLTVREKLITDFNDAEHMTVELLDDMAPDLMDVVDADGVAIFHGNDISRHGTTPDVAALRRIRDHIESEHHEALREDAVGALHVDAIGEVFPELADLAPLAAGFIFVPLMPQSRSALLWTRREQIQQIKWAGNPQLAKLEDIPNSRLSPRKSFDLWQQTVRGRARRWSPLHLESARSLRVLIELMERKRFQQDFTLLEASLSELEDGVAIIERGTANAAHRLLFVNTAFADVCGSDVAELIGRELQTLYASDAPRANVELLQDALRNGRAAYVTLPLQVSDGAPVYRQFHLEPLPSPSGVTAHWLLQLRDPE
By stoichiometry N is commonly meant a count of units in the complex or per binding partner. As for B1, the “percent monomer (main peak)” value in the data set with A0A0H2 was “Monomer (~85%)”. For the same protein, in “SEC-MALS”, the “percent dimer (secondary peak)” value is around 15% and the “stoichiometry N” value came to 2.

B2: XccBphP G454E full-length variant, holoprotein (biliverdin-bound) (natural protein)
chain: B1 chain with G453E, E524R, E526R
modifications: biliverdin IXα (BV) covalently bound to Cys13 (thioether linkage)
Regarding B2, the binding result in the data set “crystal structure” is recorded as “binds”.

B3: XccBphP W452A-G454E variant, apoprotein (natural protein)
chain: B1 chain with W451A, G453E, E524R, E526R
Turning to B3, the “stoichiometry N” value in the data set “SEC-MALS” turned out to be 2.

B4: XccBphP G454E full-length variant, apoprotein (natural protein)
chain: B1 chain with G453E, E524R, E526R
Regarding B4, the “stoichiometry N” value in “SEC-MALS” turned out to be 2.

B5: XccBphP G454A variant, holoprotein (biliverdin-bound) (natural protein)
chain: B1 chain with G453A, E524R, E526R
modifications: biliverdin IXα (BV) covalently bound to Cys13 (thioether linkage)
For the protein B5, the binding result in “SEC” was “binds”.

B6: XccBphP W478A variant, apoprotein (natural protein)
chain: B1 chain with W477A, E524R, E526R
B6: the “stoichiometry N” value in “SEC-MALS” was determined as 2.

B7: XccBphP wild-type full-length bacteriophytochrome, apoprotein (natural protein)
chain: B1 chain with E524R, E526R
B7: the “stoichiometry N” value in the data set “SEC-MALS” turned out to be 2.

B8: XccBphP A453E variant, apoprotein (natural protein)
chain: B1 chain with A452E, E524R, E526R
Consider B8, for which the “stoichiometry N” value in the data set “SEC-MALS” is 2.

B9: XccBphP F512P variant, apoprotein (natural protein)
chain: B1 chain with F511P, E524R, E526R
For B9, the “stoichiometry N” value in the data set “SEC-MALS” amounted to 2.

B10: XccBphP G454A variant, apoprotein (natural protein)
chain: B1 chain with G453A, E524R, E526R
For B10, the “stoichiometry N” value in the data set “SEC-MALS” amounted to 2.
